Experimental data: paper doi:10.1101/589580

Biological target: T1, endogenous ZO1 with N-terminal mNeonGreen (CRISPR knock-in, MDCK-II) (dog (endogenous in MDCK-II)), O97758
T1 chain: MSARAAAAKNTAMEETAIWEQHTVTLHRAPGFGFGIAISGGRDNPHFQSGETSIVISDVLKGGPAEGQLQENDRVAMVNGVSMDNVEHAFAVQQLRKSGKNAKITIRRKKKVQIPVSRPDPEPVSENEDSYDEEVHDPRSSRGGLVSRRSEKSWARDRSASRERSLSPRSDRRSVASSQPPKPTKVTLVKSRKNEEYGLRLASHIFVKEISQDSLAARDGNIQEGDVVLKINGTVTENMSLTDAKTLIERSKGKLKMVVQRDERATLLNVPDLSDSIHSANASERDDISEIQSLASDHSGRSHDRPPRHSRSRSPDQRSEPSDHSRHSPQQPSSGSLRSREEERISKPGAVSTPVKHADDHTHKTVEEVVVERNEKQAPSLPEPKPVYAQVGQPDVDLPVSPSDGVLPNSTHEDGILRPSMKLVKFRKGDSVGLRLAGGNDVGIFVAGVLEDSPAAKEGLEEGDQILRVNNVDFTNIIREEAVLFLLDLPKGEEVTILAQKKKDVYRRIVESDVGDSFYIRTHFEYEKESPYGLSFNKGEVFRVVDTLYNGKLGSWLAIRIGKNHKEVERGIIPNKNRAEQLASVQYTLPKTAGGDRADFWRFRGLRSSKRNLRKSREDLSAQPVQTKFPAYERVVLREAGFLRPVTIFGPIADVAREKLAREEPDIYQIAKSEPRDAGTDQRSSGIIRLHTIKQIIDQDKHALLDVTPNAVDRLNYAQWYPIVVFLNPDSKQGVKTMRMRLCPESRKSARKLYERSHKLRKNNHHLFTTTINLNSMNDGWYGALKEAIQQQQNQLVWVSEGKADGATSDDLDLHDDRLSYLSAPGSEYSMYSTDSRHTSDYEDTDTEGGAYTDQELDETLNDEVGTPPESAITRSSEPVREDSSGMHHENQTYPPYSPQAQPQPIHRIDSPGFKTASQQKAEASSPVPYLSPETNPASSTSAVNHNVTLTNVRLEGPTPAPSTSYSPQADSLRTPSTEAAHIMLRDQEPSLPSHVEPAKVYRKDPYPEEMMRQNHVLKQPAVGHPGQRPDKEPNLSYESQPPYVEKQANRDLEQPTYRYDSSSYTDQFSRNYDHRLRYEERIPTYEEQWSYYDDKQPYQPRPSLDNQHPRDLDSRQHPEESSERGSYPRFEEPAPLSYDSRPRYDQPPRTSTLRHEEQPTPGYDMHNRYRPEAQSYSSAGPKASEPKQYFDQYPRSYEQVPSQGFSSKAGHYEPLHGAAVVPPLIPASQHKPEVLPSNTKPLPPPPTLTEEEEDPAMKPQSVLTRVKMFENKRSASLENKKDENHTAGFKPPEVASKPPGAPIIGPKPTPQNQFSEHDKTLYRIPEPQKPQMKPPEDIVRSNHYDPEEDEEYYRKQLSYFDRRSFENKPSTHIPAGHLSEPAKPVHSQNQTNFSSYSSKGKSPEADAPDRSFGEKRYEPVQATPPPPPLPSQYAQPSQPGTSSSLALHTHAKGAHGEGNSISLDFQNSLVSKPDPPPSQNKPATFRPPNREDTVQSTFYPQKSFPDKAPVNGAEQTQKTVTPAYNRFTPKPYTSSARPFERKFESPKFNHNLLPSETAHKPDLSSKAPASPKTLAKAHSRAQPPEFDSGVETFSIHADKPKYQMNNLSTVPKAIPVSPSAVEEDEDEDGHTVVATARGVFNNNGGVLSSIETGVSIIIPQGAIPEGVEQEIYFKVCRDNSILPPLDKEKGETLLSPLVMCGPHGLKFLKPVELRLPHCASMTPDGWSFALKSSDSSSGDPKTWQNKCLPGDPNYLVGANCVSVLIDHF
Assay: FCS molecular brightness
Details: remark: other sources report otherwise

B1: endogenous ZO1 with N-terminal mNeonGreen (CRISPR knock-in, MDCK-II), O97758 1-1769 (natural protein)
chain: T1 chain
stoichiometry N: 5
